# From PMC3474183
# Molecular target: lymphocyte-derived soluble LIGHT (TNFSF 14) (human (endogenous in PBMC))
# Test: SEC
substance,measurement,value
lymphocyte-derived soluble LIGHT (TNFSF 14) (ligand),stoichiometry N,3
